Results on three molecules are retold here after patent US20220162305A1 (IMCHECK THERAPEUTICS, published 2022).

For orientation: EC50 means the concentration giving half of the maximal effect. For orientation: Kd means a measure of binding affinity in units of concentration.

Assay [1] concerns the target T1, recombinant human BTN2A1-Fc fusion protein (GTP Technologies) (human, UniProt Q7KYR7 29-248, biotinylated with EZ-Link NHS-PEG4 biotin for the Octet affinity assay (sites not given)).
T1 construct: Bought soluble Fc fusion; Used biotinylated in Octet, unmodified in ELISA and cross-linking MS; also called rhBTN2A1-Fc; huBTN2A1-Fc; not shown: Fc part of the bought fusion protein
T1 sequence: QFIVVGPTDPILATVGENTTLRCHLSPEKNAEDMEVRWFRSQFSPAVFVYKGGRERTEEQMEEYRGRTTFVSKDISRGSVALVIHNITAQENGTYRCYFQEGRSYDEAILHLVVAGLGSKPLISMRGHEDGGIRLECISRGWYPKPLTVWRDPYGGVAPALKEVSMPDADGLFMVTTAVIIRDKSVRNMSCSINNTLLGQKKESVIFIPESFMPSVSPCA
The assay is described as follows: ELISA, huBTN2A1-Fc coated at 5 µg/mL, mAb titrated, goat anti-mouse IgG HRP, absorbance at 405 nm. (In an ELISA, binding on a coated surface is turned into a signal by an enzyme label.)

For assay [2], the target named is T2, biotinylated recombinant human BTN2A2-Fc (R&D Systems) (human, UniProt Q8WVV5 33-265, limits assumed, biotinylated (sites not given)).
T2 construct: Bought soluble Fc fusion; also called rhBTN2A2-Fc; not shown: Fc part of the bought fusion protein
T2 sequence: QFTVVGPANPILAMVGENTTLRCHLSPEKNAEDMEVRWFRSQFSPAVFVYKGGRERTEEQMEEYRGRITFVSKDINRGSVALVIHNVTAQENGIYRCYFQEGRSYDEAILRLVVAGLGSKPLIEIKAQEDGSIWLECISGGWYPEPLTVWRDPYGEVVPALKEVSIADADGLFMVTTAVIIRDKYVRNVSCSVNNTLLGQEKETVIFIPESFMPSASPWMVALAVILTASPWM
The assay is described as follows: BLI (Octet Red96), chimeric mAb on FAB2G sensors, biotinylated rhBTN2A2-Fc as analyte, 30 °C, 2:1 model. Background: Biolayer interferometry detects binding as a change in optical thickness at a sensor tip.

In assay [3] the target is T1, recombinant human BTN2A1-Fc fusion …. The assay is described as follows: BLI (Octet Red96), biotinylated rhBTN2A1-Fc on streptavidin sensors, chimeric mAb as analyte, 30 °C, 1:1 model.
Description: Affinity and binning experiments were performed on an Octet Red96 platform (Fortebio/PALL), system based on Bio-layer interferometry (BLI) technology. For affinity experiments, recombinant human (rh)BTN2A1-Fc (GTP) was biotinylated using EZ-Link™ NHS-PEG4 Biotinylation Kit according to manufacturer's instructions, and biotinylated rhBTN2A2-Fc was purchased from R&D Systems. […] For BTN2A2 affinity assays, chimeric anti-BTN2A antibodies were loaded into FAB2G sensors (anti human CH1; Fortebio) as described above, and biotinylated rhBTN2A2-Fc was used as analyte. In both cases, analytes remained in solution and their working concentrations were diluted in Kinetic Buffer 10× (ForteBio). […] All runs (including loading, equilibration, association/dipping of sensors into analyte, dissociation and regeneration) were performed at 30° C. with shaking 1000 rpm. Analysis was performed using a 1:1 or 2:1 Langmuir model (for BTN2A1 or BTN2A2, respectively) calculated by Octet software, which allowed a better fitting calculation.
Assay [4] addresses T3, human BTN2A1-CFP fusion protein expressed on HEK-293T BTN2 KO cells (human, UniProt Q7KYR7 29-527).
T3 construct: not shown: CFP tag; printed as 'CFP(Nter)-fusion' and as 'BTN2A1-CFP'
T3 sequence: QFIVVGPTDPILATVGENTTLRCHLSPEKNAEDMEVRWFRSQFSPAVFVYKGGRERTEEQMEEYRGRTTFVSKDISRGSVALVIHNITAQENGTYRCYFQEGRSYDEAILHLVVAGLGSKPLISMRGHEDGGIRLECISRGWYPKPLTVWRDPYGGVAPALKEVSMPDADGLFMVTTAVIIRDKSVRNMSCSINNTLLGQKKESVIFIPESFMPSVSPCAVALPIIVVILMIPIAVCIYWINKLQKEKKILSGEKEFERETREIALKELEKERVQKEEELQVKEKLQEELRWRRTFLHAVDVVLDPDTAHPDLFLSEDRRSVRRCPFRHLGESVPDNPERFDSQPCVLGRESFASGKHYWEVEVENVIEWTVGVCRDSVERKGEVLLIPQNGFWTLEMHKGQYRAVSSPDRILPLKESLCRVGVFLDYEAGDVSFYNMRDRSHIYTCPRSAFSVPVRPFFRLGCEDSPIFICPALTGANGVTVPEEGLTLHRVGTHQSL
The assay is described as follows: flow cytometry, MFI on CFP+ HEK-293T BTN2 KO cells transfected with BTN2A1-CFP, 5 ng/mL to 75 µg/mL mAb. In general terms: In flow cytometry, cells or beads pass a laser one at a time.

In assay [5] the target is T2, biotinylated recombinant human …. The assay is described as follows: BLI (Octet Red96), chimeric mAb on FAB2G sensors, biotinylated rhBTN2A2-Fc as analyte.
Description: After generation of the reference anti-BTN2A antibodies in chimeric IgG1 format, affinities for the 2 different isoforms of this target (BTN2A1 and BTN2A2) were evaluated and competition assays were performed to determine whether these mAbs recognized the same epitope region of BTN2A1. Affinity and binning experiments were performed on an Octet Red96 platform (Fortebio/PALL), system based on Bio-layer interferometry (BLI) technology. For affinity experiments, recombinant human (rh)BTN2A1-Fc (GTP) was biotinylated using EZ-Link™ NHS-PEG4 Biotinylation Kit according to manufacturer's instructions, and biotinylated rhBTN2A2-Fc was purchased from R&D Systems. […] For BTN2A2 affinity assays, chimeric anti-BTN2A antibodies were loaded into FAB2G sensors (anti human CH1; Fortebio) as described above, and biotinylated rhBTN2A2-Fc was used as analyte. In both cases, analytes remained in solution and their working concentrations were diluted in Kinetic Buffer 10× (ForteBio). […] All runs (including loading, equilibration, association/dipping of sensors into analyte, dissociation and regeneration) were performed at 30° C. with shaking 1000 rpm. Analysis was performed using a 1:1 or 2:1 Langmuir model (for BTN2A1 or BTN2A2, respectively) calculated by Octet software, which allowed a better fitting calculation.

B1: chimeric anti-BTN2A mAb1 (101G5), chimeric IgG1 format (antibody, V domains shown)
VH: EVQLQQSGPELVKPGASVKISCKASGYSFTVYYMLWVKQSPEKSLEWIGEINPSTGGTTYNQKFKAKATLTVDKSSSTAYMQLKSLTSEDSAVYYCARGPSFYALDYWGQGTSVTVSS
VL: EIVLTQSPTTMAASPGEKITITCSATSSISSNYLHWYRHKPGFSPKLLIYRTSNLASGVPGRFSGSGSGTSYSLTIGTMEAEDVATYYCQQGSSIPRTFGGGTKLEIK
notes: Chimeric IgG1 (isotype control human IgG1), made in HEK-293 cells; also called anti-BTN2A 101G5
B1: the EC50 in assay [1] worked out at 0.82 nM. Also, the figures for the Kd in assay [2] and in assay [3] were 4.4 nM and 0.041 nM, respectively.

B2: purified anti-BTN2A1 107G3 mAb (mouse hybridoma antibody) (antibody, V domains shown)
VH: QVQLKESGPGLVAPSQSLSITCTVSGFSLTNYVISWVRQPPGKGLEWLGVIWTGGDTNYNSALKSRLSISKDNSKSQVFLKMNSLQTGDTARYYCARGGQLGLRGYWGQGTLVTVSA
VL: DIVLTQSPASLAVSLGQRATISCRASKTVSSSGYSYMHWYQQKPGQPPKLLIYLASNLESGVPARFSGSGSGTDFTLNIHPVEEEDAATYYCQHSRDLPYAFGGGTKLEIK
notes: Mouse antibody purified from hybridoma; mouse IgG1 served as its isotype control; also called anti-BTN2A1 mAb 107G3
On to B2, for which a half-maximal response in assay [4] (EC50) required 0.32 µg/mL.

B3: chimeric anti-BTN2A mAb2 (107G3), chimeric IgG1 format (antibody, V domains shown)
VH: B2 VH
VL: B2 VL
notes: Murine VH and VK cloned into heavy and light chain expression vectors, chimeric IgG1 (isotype control human IgG1), made in HEK-293 cells; also called anti-BTN2A 107G3
Consider B3, for which the binding result in assay [5] is reported as “no binding (tested: 200 nM)”. Also, the EC50 in assay [1] was determined as 0.56 nM. In assay [3], the Kd was 0.41 nM.
